Reference: the supplement of paper PMC10065799, “High-throughput profiling of sequence recognition by tyrosine kinases and SH2 domains using bacterial peptide display” (eLife, 2023)

Key:
SHP2-C SH2 = assay: SH2 binding enrichment of the phosphorylated peptide, bacterial display (enrichment ratio); higher = better substrate or ligand; peptides without Tyr show the background
c-Src SH2 = assay: as above
Grb2 SH2 = Grb2 SH2 (UniProt P62993); assay: as above
Fer (mouse) = assay: phosphorylation enrichment, bacterial display (enrichment ratio); higher = better substrate or ligand; peptides without Tyr show the background
FGFR1 = FGFR1 (UniProt P11362); assay: as above
FGFR3 = FGFR3 (UniProt P22607); assay: as above
Fyn = Fyn (UniProt P06241); assay: as above
Fes = Fes (UniProt P07332); assay: as above
EPHB2 = EPHB2 (UniProt P29323); assay: as above
AncSZ = assay: as above
MERTK = MERTK (UniProt Q12866); assay: as above
EPHB1 = EPHB1 (UniProt P54762); assay: as above
Hck = Hck (UniProt P08631); assay: as above
Jak2 = Jak2 (UniProt O60674); assay: as above
c-Src = assay: as above
c-Abl (mouse) = assay: as above
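Throughout, for SH2 binding enrichment of the phosphorylated peptide, bacterial display: peptide library displayed on the E. coli surface as eCPX fusions, selected cells deep-sequenced, score is each peptide's frequency after selection divided by its frequency in the input.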
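Throughout, for phosphorylation enrichment, bacterial display: 11-residue human phosphosite peptides and single-mutation variants displayed on the E. coli surface, counted by deep sequencing, each peptide's frequency after selection divided by its frequency in the unselected input library; frequency after pTyr selection over input frequency; kinase dosed for 20-30% of maximal phosphorylation in three min.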

EPHB2, sequence (P29323 whole entry, looked up): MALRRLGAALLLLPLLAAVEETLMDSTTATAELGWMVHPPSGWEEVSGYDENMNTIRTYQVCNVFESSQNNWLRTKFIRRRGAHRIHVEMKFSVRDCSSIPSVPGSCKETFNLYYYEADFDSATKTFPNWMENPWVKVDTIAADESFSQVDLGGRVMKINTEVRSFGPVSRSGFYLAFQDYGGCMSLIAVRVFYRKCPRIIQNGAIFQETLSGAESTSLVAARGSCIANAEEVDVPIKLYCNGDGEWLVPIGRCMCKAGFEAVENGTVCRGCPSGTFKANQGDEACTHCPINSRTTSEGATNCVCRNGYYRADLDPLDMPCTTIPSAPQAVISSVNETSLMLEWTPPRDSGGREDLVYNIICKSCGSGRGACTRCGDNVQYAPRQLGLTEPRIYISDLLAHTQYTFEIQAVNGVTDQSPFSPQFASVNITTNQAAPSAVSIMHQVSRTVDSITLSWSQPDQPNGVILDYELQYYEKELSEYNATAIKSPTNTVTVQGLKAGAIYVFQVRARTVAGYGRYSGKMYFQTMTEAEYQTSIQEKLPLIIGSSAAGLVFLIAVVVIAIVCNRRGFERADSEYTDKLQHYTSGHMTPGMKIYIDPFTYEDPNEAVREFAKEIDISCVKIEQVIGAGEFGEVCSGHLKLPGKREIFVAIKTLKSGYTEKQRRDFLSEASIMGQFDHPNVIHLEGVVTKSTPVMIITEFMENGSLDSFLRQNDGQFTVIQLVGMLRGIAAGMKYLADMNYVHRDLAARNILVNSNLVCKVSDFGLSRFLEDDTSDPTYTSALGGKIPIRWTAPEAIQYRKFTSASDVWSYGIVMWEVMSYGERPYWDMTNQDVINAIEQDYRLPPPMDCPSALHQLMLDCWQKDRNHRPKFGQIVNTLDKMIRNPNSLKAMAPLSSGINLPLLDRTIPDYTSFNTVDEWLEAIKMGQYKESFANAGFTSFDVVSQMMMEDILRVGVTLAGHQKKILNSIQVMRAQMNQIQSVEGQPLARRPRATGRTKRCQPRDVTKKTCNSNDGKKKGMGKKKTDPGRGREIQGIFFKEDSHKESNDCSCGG
FGFR3, sequence (P22607 whole entry, looked up): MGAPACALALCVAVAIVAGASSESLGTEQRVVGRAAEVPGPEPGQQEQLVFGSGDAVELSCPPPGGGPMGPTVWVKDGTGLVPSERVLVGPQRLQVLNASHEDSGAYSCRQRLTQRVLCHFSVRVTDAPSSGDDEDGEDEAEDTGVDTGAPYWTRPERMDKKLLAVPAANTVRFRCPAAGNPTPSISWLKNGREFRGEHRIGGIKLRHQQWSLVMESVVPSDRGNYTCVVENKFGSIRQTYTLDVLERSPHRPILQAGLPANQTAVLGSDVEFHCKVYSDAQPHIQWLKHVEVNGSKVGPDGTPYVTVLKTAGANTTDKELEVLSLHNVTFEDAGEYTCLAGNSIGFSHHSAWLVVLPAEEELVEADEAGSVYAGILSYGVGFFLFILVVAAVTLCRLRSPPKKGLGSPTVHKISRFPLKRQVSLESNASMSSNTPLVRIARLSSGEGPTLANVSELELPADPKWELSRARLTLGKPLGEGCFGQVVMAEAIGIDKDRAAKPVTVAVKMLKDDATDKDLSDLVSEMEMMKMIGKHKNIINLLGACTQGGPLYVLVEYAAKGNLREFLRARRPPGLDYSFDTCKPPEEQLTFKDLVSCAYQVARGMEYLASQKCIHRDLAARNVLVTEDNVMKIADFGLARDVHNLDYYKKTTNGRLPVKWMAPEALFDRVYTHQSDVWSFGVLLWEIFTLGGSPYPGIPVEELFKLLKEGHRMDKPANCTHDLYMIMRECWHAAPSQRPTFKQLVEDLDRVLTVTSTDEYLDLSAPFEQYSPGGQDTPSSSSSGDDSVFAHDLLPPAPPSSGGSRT
MERTK, sequence (Q12866 whole entry, looked up): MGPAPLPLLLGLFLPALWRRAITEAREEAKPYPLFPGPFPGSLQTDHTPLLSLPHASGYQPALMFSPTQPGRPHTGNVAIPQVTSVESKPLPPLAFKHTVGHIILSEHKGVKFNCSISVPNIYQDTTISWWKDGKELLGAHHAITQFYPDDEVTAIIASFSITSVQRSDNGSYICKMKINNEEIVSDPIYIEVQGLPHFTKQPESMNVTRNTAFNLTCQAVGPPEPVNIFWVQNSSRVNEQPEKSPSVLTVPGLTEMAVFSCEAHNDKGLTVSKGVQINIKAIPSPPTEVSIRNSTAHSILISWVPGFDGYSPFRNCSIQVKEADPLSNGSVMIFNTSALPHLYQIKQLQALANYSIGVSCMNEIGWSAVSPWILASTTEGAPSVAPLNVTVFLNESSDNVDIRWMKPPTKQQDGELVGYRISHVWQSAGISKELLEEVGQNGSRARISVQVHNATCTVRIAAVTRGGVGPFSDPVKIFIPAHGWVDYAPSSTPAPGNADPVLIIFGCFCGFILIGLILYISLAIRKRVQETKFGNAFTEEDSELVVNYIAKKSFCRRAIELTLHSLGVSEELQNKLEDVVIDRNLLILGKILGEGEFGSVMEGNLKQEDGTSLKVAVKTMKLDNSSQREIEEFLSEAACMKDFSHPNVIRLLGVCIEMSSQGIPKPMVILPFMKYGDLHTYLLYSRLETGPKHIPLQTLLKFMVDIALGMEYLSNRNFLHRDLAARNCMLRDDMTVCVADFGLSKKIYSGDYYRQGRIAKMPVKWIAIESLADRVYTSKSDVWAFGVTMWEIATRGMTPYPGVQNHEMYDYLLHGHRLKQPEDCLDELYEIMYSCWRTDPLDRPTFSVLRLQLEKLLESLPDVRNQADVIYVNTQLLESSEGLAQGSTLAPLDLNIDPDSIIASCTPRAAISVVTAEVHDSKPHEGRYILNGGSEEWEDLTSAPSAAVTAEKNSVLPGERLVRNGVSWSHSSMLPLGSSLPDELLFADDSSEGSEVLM
Hck, sequence (P08631 whole entry, looked up): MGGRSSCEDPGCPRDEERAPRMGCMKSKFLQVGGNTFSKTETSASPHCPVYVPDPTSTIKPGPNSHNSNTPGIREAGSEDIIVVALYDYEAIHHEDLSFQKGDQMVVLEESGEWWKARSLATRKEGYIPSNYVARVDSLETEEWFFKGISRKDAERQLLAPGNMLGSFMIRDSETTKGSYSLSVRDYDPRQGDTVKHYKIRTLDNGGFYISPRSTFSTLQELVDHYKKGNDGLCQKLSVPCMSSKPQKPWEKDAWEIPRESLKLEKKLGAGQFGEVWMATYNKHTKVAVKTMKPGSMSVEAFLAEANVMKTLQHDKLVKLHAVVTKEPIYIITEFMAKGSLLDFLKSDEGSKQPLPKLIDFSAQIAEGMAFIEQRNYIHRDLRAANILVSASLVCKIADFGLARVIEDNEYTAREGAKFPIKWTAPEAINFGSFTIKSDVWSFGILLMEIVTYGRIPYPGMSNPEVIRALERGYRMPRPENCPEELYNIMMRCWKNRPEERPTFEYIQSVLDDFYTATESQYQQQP
FGFR1, sequence (P11362 whole entry, looked up): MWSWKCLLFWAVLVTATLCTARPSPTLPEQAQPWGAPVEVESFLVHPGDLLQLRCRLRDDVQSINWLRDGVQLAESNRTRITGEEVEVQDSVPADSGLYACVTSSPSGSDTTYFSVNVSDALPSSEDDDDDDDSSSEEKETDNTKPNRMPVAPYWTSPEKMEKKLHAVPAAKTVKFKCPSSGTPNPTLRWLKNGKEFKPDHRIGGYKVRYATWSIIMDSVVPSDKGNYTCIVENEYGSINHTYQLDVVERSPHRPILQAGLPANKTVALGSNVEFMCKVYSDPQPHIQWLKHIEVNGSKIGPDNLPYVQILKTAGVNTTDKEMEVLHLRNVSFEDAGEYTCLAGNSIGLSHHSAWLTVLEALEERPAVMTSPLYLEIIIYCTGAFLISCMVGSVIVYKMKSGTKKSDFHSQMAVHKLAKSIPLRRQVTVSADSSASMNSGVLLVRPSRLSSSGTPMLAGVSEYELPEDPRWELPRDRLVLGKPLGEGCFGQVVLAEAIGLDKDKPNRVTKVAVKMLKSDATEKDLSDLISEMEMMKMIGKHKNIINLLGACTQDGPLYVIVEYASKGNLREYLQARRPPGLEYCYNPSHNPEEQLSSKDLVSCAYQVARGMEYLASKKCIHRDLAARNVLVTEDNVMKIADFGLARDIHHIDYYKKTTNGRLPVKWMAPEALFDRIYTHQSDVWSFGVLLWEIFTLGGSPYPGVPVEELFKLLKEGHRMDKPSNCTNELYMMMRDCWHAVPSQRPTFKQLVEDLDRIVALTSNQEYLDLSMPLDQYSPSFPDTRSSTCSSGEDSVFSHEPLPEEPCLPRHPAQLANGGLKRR
Fyn, sequence (P06241 whole entry, looked up): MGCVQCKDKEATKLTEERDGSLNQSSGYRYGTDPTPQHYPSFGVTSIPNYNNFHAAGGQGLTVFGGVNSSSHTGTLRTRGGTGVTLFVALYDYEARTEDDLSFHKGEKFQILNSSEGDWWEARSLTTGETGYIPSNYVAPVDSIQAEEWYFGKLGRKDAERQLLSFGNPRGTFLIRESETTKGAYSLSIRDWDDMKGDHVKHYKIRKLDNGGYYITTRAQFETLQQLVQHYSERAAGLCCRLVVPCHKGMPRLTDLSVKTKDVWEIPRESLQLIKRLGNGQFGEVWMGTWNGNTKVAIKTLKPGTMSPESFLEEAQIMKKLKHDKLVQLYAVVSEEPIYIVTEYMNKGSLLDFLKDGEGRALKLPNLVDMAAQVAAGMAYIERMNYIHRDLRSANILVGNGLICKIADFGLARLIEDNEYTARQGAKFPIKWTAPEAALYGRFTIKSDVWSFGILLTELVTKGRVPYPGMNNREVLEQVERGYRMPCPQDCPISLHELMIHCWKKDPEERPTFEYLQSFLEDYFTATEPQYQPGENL

Sequence | SH2 binding enrichment (SHP2-C SH2) | SH2 binding enrichment (c-Src SH2) | SH2 binding enrichment (Grb2 SH2) | phosphorylation enrichment (Fer (mouse)) | phosphorylation enrichment (FGFR1) | phosphorylation enrichment (FGFR3) | phosphorylation enrichment (Fyn) | phosphorylation enrichment (Fes) | phosphorylation enrichment (EPHB2) | phosphorylation enrichment (AncSZ) | phosphorylation enrichment (MERTK) | phosphorylation enrichment (EPHB1) | phosphorylation enrichment (Hck) | phosphorylation enrichment (Jak2) | phosphorylation enrichment (c-Src) | phosphorylation enrichment (c-Abl (mouse))
KIIRWYVSSEG [ANK2_Y3907_R3906W] | 1.51 | 1.18 | 1.19 | 0.543 | 0.55 | 0.784 | 0.51 | 1.34 | 0.679 | 1.31 | 0.415 | 0.69 | 0.498 | 1.2 | 0.455 | 0.747
KIKGWYEKCEP [KRT26_Y119] | 0.693 | 1.26 | 0.935 | 0.541 | 0.515 | 0.779 | 0.442 | 1.21 | 0.573 | 0.996 | 0.446 | 0.594 | 0.527 | 1.07 | 0.47 | 0.786
KKRSSYGNSSD [SELENOK_Y52_R50S] | 0.609 | 0.441 | 0.686 | 0.422 | 0.386 | 0.476 | 0.438 | 0.508 | 0.462 | 0.57 | 0.556 | 0.4 | 0.475 | 0.523 | 0.515 | 0.489
KLIETYSSKNF [PLP1_Y50_F51S_YF] | 0.472 | 0.422 | 0.713 | 0.388 | 0.446 | 0.46 | 0.504 | 0.996 | 0.618 | 0.654 | 0.401 | 0.769 | 0.519 | 0.59 | 0.451 | 0.588
KLSFSYGRALQ [ALDOB_Y302] | 0.955 | 0.592 | 1.04 | 0.413 | 0.519 | 0.642 | 0.388 | 0.994 | 0.483 | 0.9 | 0.407 | 0.548 | 0.46 | 0.847 | 0.417 | 0.694
KMGNIYRTEFG [MRPL3_Y265_YF] | 0.652 | 0.485 | 0.672 | 0.393 | 0.482 | 0.514 | 0.536 | 0.5 | 0.34 | 0.535 | 0.477 | 0.337 | 0.488 | 0.448 | 0.532 | 0.471
KNSFKYYMSDD [ATRX_Y203_C200S] | 0.661 | 0.708 | 0.848 | 0.405 | 0.486 | 0.604 | 0.468 | 1.02 | 0.531 | 0.92 | 0.479 | 0.507 | 0.477 | 0.947 | 0.44 | 0.671

Second part, led by results:

SH2 binding enrichment (SHP2-C SH2) | SH2 binding enrichment (c-Src SH2) | SH2 binding enrichment (Grb2 SH2) | Sequence | phosphorylation enrichment (Fer (mouse)) | phosphorylation enrichment (FGFR1) | phosphorylation enrichment (FGFR3) | phosphorylation enrichment (Fyn) | phosphorylation enrichment (Fes) | phosphorylation enrichment (EPHB2) | phosphorylation enrichment (AncSZ) | phosphorylation enrichment (MERTK) | phosphorylation enrichment (EPHB1) | phosphorylation enrichment (Hck) | phosphorylation enrichment (Jak2) | phosphorylation enrichment (c-Src) | phosphorylation enrichment (c-Abl (mouse))
0.986 | 0.558 | 0.923 | KGLMPYGQPRP [SRRT_Y798_Q793K] | 0.363 | 0.388 | 0.366 | 0.36 | 0.727 | 0.371 | 0.444 | 0.527 | 0.365 | 0.325 | 0.426 | 0.378 | 0.455
1 | 2.98 | 19.5 | KGNMFYENSFA [EGFR_Y113_R108K_YF] | 1.8 | 0.332 | 0.535 | 0.412 | 0.705 | 0.463 | 0.76 | 0.484 | 0.503 | 0.449 | 0.751 | 0.45 | 0.645
0.967 | 0.759 | 0.817 | KHTLSYVDVGT [SDHA_Y629] | 0.392 | 0.724 | 0.589 | 0.348 | 0.685 | 0.42 | 0.703 | 0.295 | 0.573 | 0.431 | 0.552 | 0.283 | 0.53
0.86 | 0.592 | 1 | KKLHEYNTQFQ [PIK3R1_Y452] | 0.389 | 0.322 | 0.366 | 0.39 | 0.541 | 0.385 | 0.55 | 0.348 | 0.323 | 0.367 | 0.43 | 0.42 | 0.477
1.91 | 1.11 | 1.24 | KLKEKYQKDIA [HMGB1_Y155_E156Q] | 0.522 | 0.565 | 1.21 | 0.465 | 0.996 | 0.588 | 0.57 | 0.557 | 0.454 | 0.487 | 1.47 | 0.582 | 1.24
0.761 | 0.654 | 0.531 | KLKNAYEESLE [MYH7_Y1488] | 0.454 | 0.65 | 0.612 | 0.429 | 1.14 | 0.445 | 0.982 | 0.452 | 0.491 | 0.384 | 0.908 | 0.472 | 0.743
0.937 | 1.03 | 0.962 | KNKKDYYDMYE [SLC26A3_Y526] | 0.543 | 6.27 | 4.04 | 0.601 | 0.851 | 0.738 | 1.13 | 0.408 | 1.13 | 0.73 | 0.67 | 0.579 | 0.579
0.588 | 1.79 | 0.766 | KNNDGYTDYAE [MCFD2_Y135_I136T] | 0.381 | 0.515 | 0.597 | 0.463 | 1 | 0.57 | 0.941 | 0.458 | 0.475 | 0.461 | 0.831 | 0.383 | 0.85
1.05 | 0.671 | 1.08 | KNNSIYVVANI [VNN1_Y134] | 0.727 | 0.701 | 0.821 | 0.765 | 1.14 | 0.761 | 0.982 | 0.885 | 0.74 | 0.888 | 1.04 | 0.705 | 0.8
